Format in all cases: biochemical, baker's yeast
Data set [1] has as its target T1, Tre6P synthase activity of intact trehalose synthase (Saccharomyces cerevisiae, UniProt Q00764).
T1 construct: Intact trehalose synthase was purified from commercial baker's yeast; made in house; host or cells: commercial baker's yeast (native enzyme purified, not recombinant)
The data set is described as follows: Tre6P synthase assay of intact trehalose synthase. Particulars: 0.5 μg trypsin, 30° C., first 10 min. The protocol:
(§1) With microbial materials, Tre6Pase and Tre6P synthase standard assays and other kinetic measurements were made as described by Londesborough & Vuorio [(1991) loc. cit.] except that the standard Tre6P synthase assay mixture contained 5 mM F6P unless stated otherwise.
Removal of the N-terminal 325 or so amino acids from the 123 kDa long chain of intact trehalose synthase by treatment with trypsin in vitro produces an enzyme with catalytic properties like those of the truncated enzyme purified by Londesborough & Vuorio [(1991) loc. cit.]. In one experiment intact trehalose synthase (0.28 Tre6P synthase units, ≈9.4 μg) was incubated with or without 0.5 μg of trypsin at 30° C. in 250 μl of 13 mM HEPES pH 7.0 containing 1 mM MgCl2, 0.5 mM EDTA, 0.5 mM dithiothreitol, 0.2 M NaCl and 0.5 mM benzamidine. Its Tre6P synthase activity was determined at intervals using standard assay mixtures (containing 5 mM F6P) containing no or 4 mM K phosphate pH 6.8, and samples were prepared for SDS-PAGE analysis immediately before and 48 min after addition of the trypsin.
Truncated trehalose synthase was prepared as described by Londesborough & Vuorio [(1991) loc. cit.] and contained the 57 kDa short chain and 86 and 93 kDa fragments of the long chain. Intact trehalose synthase was prepared as in Example 1. Kinetic assays were done at 30° C. as described in General Methods and Materials.

The target of data set [2] is T2, Tre6Pase activity of intact trehalose synthase (Saccharomyces cerevisiae, UniProt P31688).
T2 construct: Intact trehalose synthase was purified from commercial baker's yeast; made in house; host or cells: commercial baker's yeast (native enzyme purified, not recombinant)
T2 sequence (P31688 1-896): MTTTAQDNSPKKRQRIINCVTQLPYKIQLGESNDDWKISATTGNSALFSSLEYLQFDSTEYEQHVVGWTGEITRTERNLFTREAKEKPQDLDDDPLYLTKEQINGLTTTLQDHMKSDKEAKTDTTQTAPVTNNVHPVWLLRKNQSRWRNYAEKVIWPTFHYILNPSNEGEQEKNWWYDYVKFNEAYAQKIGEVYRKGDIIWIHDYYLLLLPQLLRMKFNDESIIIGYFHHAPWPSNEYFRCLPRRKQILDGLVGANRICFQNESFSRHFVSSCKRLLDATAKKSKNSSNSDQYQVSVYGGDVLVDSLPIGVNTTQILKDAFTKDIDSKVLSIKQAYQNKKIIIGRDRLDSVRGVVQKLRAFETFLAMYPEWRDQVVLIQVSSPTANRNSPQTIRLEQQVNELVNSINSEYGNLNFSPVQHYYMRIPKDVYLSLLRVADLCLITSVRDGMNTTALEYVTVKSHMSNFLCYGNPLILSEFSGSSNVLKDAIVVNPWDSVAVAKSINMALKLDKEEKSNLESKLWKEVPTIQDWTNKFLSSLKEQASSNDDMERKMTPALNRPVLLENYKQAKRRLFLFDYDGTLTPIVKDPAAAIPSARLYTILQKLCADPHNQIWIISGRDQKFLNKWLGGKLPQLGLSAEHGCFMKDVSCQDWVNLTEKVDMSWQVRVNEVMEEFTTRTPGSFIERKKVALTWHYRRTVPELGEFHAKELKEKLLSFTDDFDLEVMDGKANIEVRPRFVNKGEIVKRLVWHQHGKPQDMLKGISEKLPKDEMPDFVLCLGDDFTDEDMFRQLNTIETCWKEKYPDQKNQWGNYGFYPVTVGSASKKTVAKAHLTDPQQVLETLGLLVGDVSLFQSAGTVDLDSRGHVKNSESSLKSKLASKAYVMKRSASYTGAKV
T2 sequence (Q00764 1-495 partner): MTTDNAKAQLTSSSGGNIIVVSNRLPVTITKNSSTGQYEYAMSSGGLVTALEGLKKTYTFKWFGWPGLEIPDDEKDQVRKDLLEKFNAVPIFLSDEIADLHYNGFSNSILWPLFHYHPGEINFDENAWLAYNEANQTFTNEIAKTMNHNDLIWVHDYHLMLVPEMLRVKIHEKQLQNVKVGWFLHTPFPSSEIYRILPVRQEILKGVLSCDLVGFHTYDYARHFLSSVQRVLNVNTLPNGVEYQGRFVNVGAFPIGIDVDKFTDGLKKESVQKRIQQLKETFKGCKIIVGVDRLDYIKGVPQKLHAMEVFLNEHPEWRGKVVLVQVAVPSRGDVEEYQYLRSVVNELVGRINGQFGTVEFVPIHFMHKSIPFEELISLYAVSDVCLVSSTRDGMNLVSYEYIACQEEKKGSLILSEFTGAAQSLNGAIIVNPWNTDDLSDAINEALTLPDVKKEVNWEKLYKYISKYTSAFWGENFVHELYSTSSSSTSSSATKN
T2 sequence (P38427 1-1098 partner): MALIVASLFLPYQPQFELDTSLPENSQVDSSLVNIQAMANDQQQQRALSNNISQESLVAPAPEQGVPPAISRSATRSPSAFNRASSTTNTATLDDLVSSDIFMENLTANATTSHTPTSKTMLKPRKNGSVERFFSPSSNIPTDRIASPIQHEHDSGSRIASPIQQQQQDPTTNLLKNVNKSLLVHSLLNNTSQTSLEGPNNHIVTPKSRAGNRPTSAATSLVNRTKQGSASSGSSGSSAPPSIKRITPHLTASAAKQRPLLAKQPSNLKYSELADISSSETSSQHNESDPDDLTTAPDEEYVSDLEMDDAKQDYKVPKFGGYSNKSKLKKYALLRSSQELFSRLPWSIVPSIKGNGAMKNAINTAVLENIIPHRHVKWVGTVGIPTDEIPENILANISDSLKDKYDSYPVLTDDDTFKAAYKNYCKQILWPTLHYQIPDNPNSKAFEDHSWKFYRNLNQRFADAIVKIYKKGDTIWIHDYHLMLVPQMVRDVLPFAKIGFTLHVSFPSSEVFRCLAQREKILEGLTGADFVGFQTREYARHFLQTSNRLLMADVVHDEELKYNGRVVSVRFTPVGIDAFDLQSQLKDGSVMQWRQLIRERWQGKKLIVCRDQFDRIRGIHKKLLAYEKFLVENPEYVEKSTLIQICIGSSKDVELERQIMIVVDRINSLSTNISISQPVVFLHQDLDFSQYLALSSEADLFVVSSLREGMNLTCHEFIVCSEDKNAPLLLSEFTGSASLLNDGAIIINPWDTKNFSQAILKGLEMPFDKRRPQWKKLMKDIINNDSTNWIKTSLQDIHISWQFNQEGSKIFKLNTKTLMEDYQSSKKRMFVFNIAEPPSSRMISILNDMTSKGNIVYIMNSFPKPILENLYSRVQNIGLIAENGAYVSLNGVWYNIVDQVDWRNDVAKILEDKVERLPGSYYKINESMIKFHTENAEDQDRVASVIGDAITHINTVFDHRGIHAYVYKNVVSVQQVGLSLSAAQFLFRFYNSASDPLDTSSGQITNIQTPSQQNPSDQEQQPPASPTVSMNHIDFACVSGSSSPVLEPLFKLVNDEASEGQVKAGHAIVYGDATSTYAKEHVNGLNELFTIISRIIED
In words: Tre6Pase assay of intact trehalose synthase. The protocol: as §1
In one experiment intact trehalose synthase (0.28 Tre6P synthase units, ≈9.4 μg) was incubated with or without 0.5 μg of trypsin at 30° C. in 250 μl of 13 mM HEPES pH 7.0 containing 1 mM MgCl2, 0.5 mM EDTA, 0.5 mM dithiothreitol, 0.2 M NaCl and 0.5 mM benzamidine. Its Tre6P synthase activity was determined at intervals using standard assay mixtures (containing 5 mM F6P) containing no or 4 mM K phosphate pH 6.8, and samples were prepared for SDS-PAGE analysis immediately before and 48 min after addition of the trypsin.
Intact trehalose synthase was prepared as in Example 1. Kinetic assays were done at 30° C. as described in General Methods and Materials.

Data set [3] deals with T1, Tre6P synthase activity of intact trehalose synthase. In words: Tre6P synthase assay of intact trehalose synthase. Particulars: 11 μg trypsin, 25° C., after first 30 min (26% before).
The target in data set [4] is T3, Tre6Pase activity of the 99 kDa polypeptide (Saccharomyces cerevisiae, UniProt P31688).
T3 construct: the 99 kDa polypeptide isolated from intact trehalose synthase is a specific trehalose-6-phosphatase; made in house; host or cells: commercial baker's yeast (native; isolated from intact trehalose synthase on phosphocellulose)
The data set is described as follows: Tre6Pase activity of isolated 99 kDa polypeptide. The protocol:
Intact trehalose synthase has also been fractionated on phosphocellulose in the absence of Triton, and with elution by a simple linear gradient from 0 to 0.6 M NaCl. […] This activity differed from the Tre6Pase activity of intact trehalose synthase in that the ratio of activities at 25 mM phosphate and 50 mM Hepes was between 1.5 and 3 in different experiments (cf, this ratio is 5 to 6 for intact trehalose synthase). Furthermore, during storage of the isolated 99 kDa polypeptide at 0° C., the Tre6Pase activity at 25 mM phosphate decreased and that at 50 mM Hepes increased, until the ratio was about 0.7 after 7 weeks.

The record followed here is patent US6323001A, “Increasing the trehalose content of organisms by transforming them with combinations of the structural genes for trehalose synthase” (BTG International Ltd., priority 1994, dated 2001).

As for trypsin, in data set [1], the “increase in Tre6P synthase activity measured at 4 mM phosphate” value turned out to be 4 fold. Also, in data set [2] (limited treatment with trypsin, 30° C.), the “loss of Tre6Pase activity” value is on record as “about 50%”. In data set [3], the “Tre6P synthase activity in absence of F6P and presence of 10 mM phosphate, % of standard activity” value is 73%.
With `O=P(O)(O)OC[C@H]1OC(O)[C@H](O)[C@@H](O)[C@@H]1O` (some centres unmarked) [Transformant G6P, Glucose 6-phosphate], in data set [2] (1 mM G6P, phosphate or Hepes buffer), the “rate of hydrolysis relative to 0.5 mM trehalose-6-phosphate” value is recorded as “less than 1%”. Further, the “hydrolysis by isolated 99 kDa polypeptide” value in data set [4] was “not hydrolyzed”.
